# Laboratory results as given in the DeepSol protein solubility set.
# Assay: soluble on expression in E. coli; label from the status in PepcDB or PDB records
row,Sequence,soluble on expression in E. coli
1,MGSDKIHHHHHHMIHTREEQMEAFGRFLDILDELRVKCPWDRKQTNESLRPNTIEETYELCDALMRDDKKDICKELGDVLLHVAFYAKIGSETGDFDIKDVCDKLCDKLIFRHPHVFGEVKAETAGQVSENWEQLKLKEKDGNKSVLSGVPSALPSLIKAYRIQDKARNVGFDWEEREQVWDKVKEEIREFQVEVANMDKEKAEAEFGDVMFSLINAARLYKINPDNALELTNQKFIRRFNYLEEHTIKEGKNLKDMSLEEMDAIWNEAKRKGL,not soluble
2,MGSDKIHHHHHHMIIEELHIVNFKSIAAADCRFSPKVNCLVGNNGMGKTNLLDALHFLSFCRSHLSVPDNMVVRHGEEMALLQGLYRDESGDGIELLLSIRPGKHKVLRRNKKEYERLSDHIGRFPLVIVSPQDYQLILGGSDERRRFMDQQLCQQDPRYLSALIQYNRHLQQRNTMLKQDRHDDALMDVLELQMGSYAAEICNKRSRFIEDFLPVFNDLYSDISGSAEKVSLSYRSHLADGIPLEELLRRSRPKDYLLGFSSCGVHKDELEMLLGGVLIRKIGSEGQNKTFLISMKLAQFRHQQLHGDETPILLLDDIFDKLDATRVERIIRLVGGNGFGQIFITDTNRKNLDEIIASWSEDYRLFKIENGQIFQ,not soluble
3,MGSDKIHHHHHHMIIENLSQLYPKGYLSKTIGSEATYSIPVDDQFFIVNKAFLSIKEQHLLEALFPISENPTITGNHPWFSYLFQQAKLPAEGTFRMLQIQTNVTKELQAEWQFNLTKMFPDTVDCFSPSNNMYILVEEQSKNTFQQEEIQGIFLTLDTDFDCTSAVFVGNFYSSEDILRRCFHEEQRIFSEELNSSSRTTVFSLTDVALHYFTKEAMSQNVLVEYYRRLLNKDTDIQPIISALWKNQGNISSTAKDLFMHRNTLHYRLEKFFEQTGLSLKKMDDLIFCYLLLRK,not soluble
4,MGSDKIHHHHHHMIIGNCLILKDFSSEPFWGAVEIENGTIKRVLQGEVKVDLDLSGKLVMPALFNTHTHAPMTLLRGVAEDLSFEEWLFSKVLPIEDRLTEKMAYYGTILAQMEMARHGIAGFVDMYFHEEWIAKAVRDFGMRALLTRGLVDSNGDDGGRLEENLKLYNEWNGFEGRIFVGFGPHSPYLCSEEYLKRVFDTAKSLNAPVTIHLYETSKEEYDLEDILNIGLKEVKTIAAHCVHLPERYFGVLKDIPFFVSHNPASNLKLGNGIAPVQRMIEHGMKVTLGTDGAASNNSLNLFFEMRLASLLQKAQNPRNLDVNTCLKMVTYDGAQAMGFKSGKIEEGWNADLVVIDLDLPEMFPVQNIKNHLVHAFSGEVFATMVAGKWIYFDGEYPTIDSEEVKRELARIEKELYSS,soluble
5,MGSDKIHHHHHHMIKFGEAVLGNEIKAIVNVALGKGELIENTFTNALTRGNCVFANLRPNLIVKPLTLVVPRHNIESEIQDELFQGVIQYAVAKAVADLDLDEDLKVVVSVNVPEVPITNLNKRKLFQYFYASAKLAINRALNEYPSKEKVKKEKYRALHPLVGFRDVRLEYPPYLQIALDVPTMENLEFLLQTIPNSDHIILEAGTPLIKKFGLEVIEIMREYFDGFIVADLKTLDTGRVEVRLAFEATANAVAISGVAPKSTIIKAIHECQKCGLISYLDMMNVSEPQKLYDSLKLKPDVVILHRGIDEETFGIKKEWKFKENCLLAIAGGVGVENVEELLKEYQILIVGRAITKSKDPGRVIRMFINKMGYDIDTYRLYFDEDEDIGEEL,not soluble
6,MGSDKIHHHHHHMIKFLYFTDTHIRGTAPKNRLDPFVETLKHKLHEVMEIAETEKVDMLLHGGDVFDRPDLSPNVVGQFAQIFRKTSRPIYAIAGNHDTFGHNPETISRTMLGLLHSFGIIHIIDPQTPVLVEKDGVKVQISGQPYHYDIDQRDPKLDYYPVNVHEADVMVHLVHSMLVEKALPEGIPHTLIDHIWGTSADVLLTGHFHGGFGIKQKDGRYICNPGAIARINNHWTELVRTPTVILGTITKDGIDLKERPLQSAKNGEEVLDRSFLEKSINQEEKLHAFIQQVKEHAEFQSLNMNDVINEIAAMSNVEEPVKQEALRRITVIEEAWKGGEHEYD,not soluble
7,MGSDKIHHHHHHMIKLAQPQAQRLVLLLAGAVRSVLLYPGSHPAVVQQFAHLGSHVTELLRAYPEVRIGIIDGVLFCENHLFFTPTAAEEELAALLTNRHVEAVAFRAGLTPLELERFVELLTRRELLGEQLVAEVKRAGIAAISVELCGSGATEDHSQGDDEYDPGTTYREALDVVTGLFSEVEKGRIPSSDKLRGVVDRMATMIMQDRATLLGLAMIKDYDNYTFCHSVNVGILSMSLGAAAGLQRDELGELGMAGFLHDVGKTRVEITILNKPGRLSSDEYERMKMHSEEGARIVGEMPGVGERIARAVLGHHIRFDRAGYPESARALAFDRFCDIIAVADCYDAITTLRVYKSPLNPKDALLKLRSLAGSHLDSGLVQAFTEMMGRYPVGTLVRLDTNEVAVVFRPDPNGGERPVVKVVADPAGRLLDPAHMKNLARETGTRIVSVVDPLMTAIDVNRYLG,not soluble
8,MGSDKIHHHHHHMILCCGEALIDMLPRETTLGEKGFSPYAGGAVFNTGIALGRLGVASGFFTGLSDDMMGDILRDTLRASHVDFSYCATLSRPTTIAFVKLVDGHATYAFYDENTAGRMITEADLPALGEDCEALHFGAISLIPEPCGSTYEALLNREHKTRVISLDPNIRPGFIKDKAAHMARIRRMAALSDIVKFSDEDLAWFGLDGDEDTLARHWLHHGAKLVVVTRGADGAVGYTADHKVEVPSEKVTVVDTVGAGDTFDAGVLASLKMQNLLTKQQVAKLTEEQIAKALALGSKAAAVTVSRAGANPPFAHEIGL,not soluble
9,MGSDKIHHHHHHMILLVGGEKGGAGKSCLAQNIAVHITQKFNANVLMVDCDPQRTTSDWIQARNEDASLPAINCIQLYGKIRNDLLGLDQRFDYVIVDCGGQDNLAMRAAMSVATYVVLPLRPKRRDLKTLPHMEDMLSTCKMVNPKMVATVVMTQCPALPSQYKRILEAKEVVESFGLRVLDAVTFSRNVYDDSEEQGSSVIEIEPDGKAAAEIRAIADELFAIPPENSYELN,not soluble
10,MGSDKIHHHHHHMINQIYQLTKPKFINVKYQEEAIDQENHILIRPNYMAVCHADQRYYQGKRDPKILNKKLPMAMIHESCGTVISDPTGTYEVGQKVVMIPNQSPMQSDEEFYENYMTGTHFLSSGFDGFMREFVSLPKDRVVAYDAIEDTVAAITEFVSVGMHAMNRLLTLAHSKRERIAVIGDGSLAFVVANIINYTLPEAEIVVIGRHWEKLELFSFAKECYITDNIPEDLAFDHAFECCGGDGTGPAINDLIRYIRPQGTILMMGVSEYKVNLNTRDALEKGLILVGSSRSGRIDFENAIQMMEVKKFANRLKNILYLEEPVREIKDIHRVFATDLNTAFKTVFKWEV,not soluble
11,MGSDKIHHHHHHMIPFHDRPFAEYLVEMLRGQGFRRILFLLGYLPDKVTEHFGDGSRFGVEIEYAVSPVEDETGTRLRRVKDRLDDIFVLLYCDNYWPMPFAAMWERYCRLGVEAMVTVYRNRDGYTRDNLRVDDDGLLALYDKSRTAPGLAGVDIGFFILTRAVIDLIPEGGNPSFEKSVYPVLVERRQLAAFETDHRYYSVGSHERLPLTEAFLARNKTVLLDRDGTLNLRMPRAEYVRSWADWQWLPGAREALAELARADYRIILITNQPGLARGALDQAALDAIHGRMIEETQAAGGRIDHIYYCPHNWDEGCDCRKPRPGMLFQAQRDFHLDLSRVTFIGDDDRDGEAAQAAGAPFLQVTESYSLLDAVHDLLAADHSNPVTGKCPD,not soluble
12,MGSDKIHHHHHHMIPLFDLTRQYERIRGEILNAIDKLISSGNVILGENVRRLEEEIASFTGVKHGVGVASGSDALLIALRAMGVEKGDTVVTTPYTFFATASAPYRLGARVIFVDVDESTFNMDLNQLEHVLKKEKVKAIIPVHLFGRTVDLEALSFLREKYGVMILEDCAQSMGSEWKFSSGEIRKSGSVGDAAIFSFFPTKNLGTYGDGGMIVTNSDEIAEESRILRVHGARKKYFHEKVGYNSRLDEIHAAILRVKLRYLERWTEERTRVARTYQKLFEEKKLPVVYPRVEEKGFRYHVFHQYVVLFENEEVRERVREGLKERGIQTAIYYPLPLHLQKCFRDLGYQEGDFPVAESLSKRSLALPMFPELRDDEIKEVVDTIALFL,not soluble
13,MGSDKIHHHHHHMIPYNQSSVSTLQTKERKIDVFSVEGNVDNETVKSFGEEWTAFDSFNETEIYNAGDNYFDIVPETILKHITNALDVGCGTGRWSYYLSEKVGFIECIDPSEAVIAASSLLSGKNNIRISKAGVDNIPFADGTFDFVFSLGVLHHVPDTKKAVHACVQKLKMNGHILLYLYYNLENRGLIFKTLFHLSNSLRWMVSKLPGAIKRFVCDLLAIVIYMPFVIVSRILIKLNLAASVVSRVPLSWYADKSFNIIRNDSLDRFGTPLEQRFSKQQITDMLIHAGCTDIVFADNAPFWRVIAKKK,not soluble
14,MGSDKIHHHHHHMIQHKPDLIFLDINLPDINGIDFAEQVQSILPEVHIVFITAYDEYAVKAFELNAIDYVMKPVQRDRLNRTINRITDRKTVEPLRSQTDSKIISCFQTLHFQKGSEIGKAEPIDVNWRTAKARELFAYLVQHRKQPVRKDVLLEFFWPESDVKKGYAQLYSAIYQIRKMLDSLQMNSTVVSFDKSYKLHLNGTKLDVEEWERELRQLPNITEDTLPSYRRLLETYKGDYLAEEAYLWAENERERLRTLYHSTFNKVTTYYLECGYYTDAITLCQRVQTLHPLMETSYFLLMQVYAKMGDNHSVKSQYEKLNHVLEAEYGIHTSDSIENWYNEWKKQLQ,not soluble
15,MGSDKIHHHHHHMIRFENISKQNSHRILFLDSSAALNRGEKIGLVGPNGAGKTTLFRMITGEEVPDAGQVSIEKQVSIGYFNQDVGEMSGRSAVAEVMDGAGPVSSVAAEMAELEAAMCDPDRDDMDAVVERYGEVQARFEELGGYELEGRAREVLAGLSFSQEMMDGDVGALSGGWKMRVALGRILLMRPDAMLLDEPSNHLDIESLIWLEEFLKGYDGALLMTSHDREFLNRIVTKIIEIDGGSLNTYSGDYAFFERQRAQNEKQQQAQFERQQAMLAKEIKFIERFKARASHAAQVQSRVKKLDKIERFEPPRRRQTVSFDFPPAPRSGDDVAVFKSVHKGYGSRAIYQGLDLIIRRKERWCVMGVNGAGKSTLLKLVAGAADPDSGTVTVGASVKMGYFSQHAMELLDGERTVYESLEDRFPQANQGSLRTLAGCFGFSGDDVEKKCRVLSGGEKARLVMAIMLYNPPNFLVLDEPTNHLDLDTKQMLIAALANYEGTMLFVSHDRHFLAALSNRVLELTPEGVHQYSGGYTEYVARTGHEAPGLRS,not soluble
16,MGSDKIHHHHHHMIRSTLSSWREYLTPITHKSTFLTTGQITPEEFVQAGDYLCHMFPTWKWNEESSDISYRDFLPKNKQFLIIRKVPCDKRAEQCVEVEGPDVIMKGFAEDGDEDDVLEYIGSETEHVQSTPAGGTKDSSIDDIDELIQDMEIKEEDENDDTEEFNAKGGLAKDMAQERYYDLYIAYSTSYRVPKMYIVGFNSNGSPLSPEQMFEDISADYRTKTATIEKLPFYKNSVLSVSIHPCKHANVMKILLDKVRVVRQRRRKELQEEQELDGVGDWEDLQDDIDDSLRVDQYLIVFLKFITSVTPSIQHDYTMEGW,not soluble
17,MGSDKIHHHHHHMISDSISKRRSIRKYKNQSISHETIEKIIEAGINAPSSKNRQPWRFVVITEKEKESMLKAMSKGIQNEINDNGLLPGSRQHIAGANYTVEIMKQAPVTIFILNILGKSPLEKLSPEERFYEMANMQSIGAAIQNMSLTAVELGLGSLWICDVYFAYRELCEWLNTDSQLVAAISLGYPDEEPSRRPRLQLSDVTEWR,not soluble
